B1: Adenylate kinase, P16304 (parent)
chain: MNLVLMGLPGAGKGTQGERIVEDYGIPHISTGDMFRAAMKEETPLGLEAKSYIDKGELVPDEVTIGIVKERLGKDDCERGFLLDGFPRTVAQAEALEEILEEYGKPIDYVINIEVDKDVLMERLTGRRICSVCGTTYHLVFNPPKTPGICDKDGGELYQRADDNEETVSKRLEVNMKQTQPLLDFYSEKGYLANVNGQQDIQDVYADVKDLLGGLKK

The variants in the data set derive from B1. The settings on record: Bacillus subtilis (strain 168), pH 7, CD, transition: 2, reversible: yes, structure 2EU8, whole UniProt chain shown; for ddG of mutation (higher = less stable) / unfolding free energy: 20 °C, GdnHCl, Phosphate buffer 10mM; for Tm / change of melting temperature, mutant - wild type (higher = more stable): Thermal, KH2PO4 10mM.

The values below come from FireProtDB (doi:10.1016/j.bpj.2010.04.076).

As to Q199R G213E, the “ddG of mutation (higher = less stable)” value is -1.68 kcal/mol; the unfolding free energy was 5.02 kcal/mol; the Tm – broadly, the temperature at which the thermal transition is half complete – was found to be 51.4 °C; the “change of melting temperature, mutant - wild type (higher = more stable)” value (“change of melting temperature, mutant” below) came to 3 °C.

For Q199R G213Q, the Tm is 39.3 °C and the “change of melting temperature, mutant” value was -9.1 °C.

Q199R G213A: the Tm came out at 37.9 °C and the “change of melting temperature, mutant” value was -10.5 °C.

In the case of G214R, the midpoint of thermal melting (Tm) was 49.8 °C and the “change of melting temperature, mutant” value was found to be 1.4 °C.

For A193V, the Tm was determined as 48.9 °C and the “change of melting temperature, mutant” value came to 0.5 °C.

Take Q199R G214A: the Tm came to 49.1 °C and the “change of melting temperature, mutant” value came to 0.7 °C.

Take Q199R G214K: the Tm turned out to be 48.4 °C and the “change of melting temperature, mutant” value amounted to 0 °C.

Take Q199R G214R: the “ddG of mutation (higher = less stable)” value was -2.63 kcal/mol; the unfolding free energy was 5.97 kcal/mol; the melting temperature (Tm) is 53.4 °C; the “change of melting temperature, mutant” value was found to be 5 °C.

Q199R: the “ddG of mutation (higher = less stable)” value is -0.48 kcal/mol; the unfolding free energy amounted to 3.82 kcal/mol; the Tm turned out to be 49.5 °C; the “change of melting temperature, mutant” value was 1.1 °C.

As for Q199R Q16L, the “ddG of mutation (higher = less stable)” value was -3.35 kcal/mol; the unfolding free energy came to 6.69 kcal/mol; the Tm is 63.3 °C; the “change of melting temperature, mutant” value was determined as 14.9 °C.

As to Q199R T179I, the “ddG of mutation (higher = less stable)” value is -2.4 kcal/mol; the unfolding free energy was 5.74 kcal/mol; the Tm stood at 53.3 °C; the “change of melting temperature, mutant” value worked out at 4.9 °C.

For the variant Q199R A193V, the “ddG of mutation (higher = less stable)” value is -2.87 kcal/mol; the unfolding free energy was 6.21 kcal/mol; the Tm was 54.6 °C; the “change of melting temperature, mutant” value came to 6.2 °C.

As to T179I, the Tm is 47.8 °C and the “change of melting temperature, mutant” value is -0.6 °C.
